Experimental data from PMC7222171 (Cellular and Molecular Immunology, 2020).

Molecular target: Con1 E2 soluble fragment, amino acids 384–661 (wild type) (Hepatitis C virus genotype 1b, Con1, UniProt Q9WMX2)
Assay: ELISA

Sequence of Con1 E2 soluble fragment, amino acids 384–661 (wild type) (Q9WMX2 384-661): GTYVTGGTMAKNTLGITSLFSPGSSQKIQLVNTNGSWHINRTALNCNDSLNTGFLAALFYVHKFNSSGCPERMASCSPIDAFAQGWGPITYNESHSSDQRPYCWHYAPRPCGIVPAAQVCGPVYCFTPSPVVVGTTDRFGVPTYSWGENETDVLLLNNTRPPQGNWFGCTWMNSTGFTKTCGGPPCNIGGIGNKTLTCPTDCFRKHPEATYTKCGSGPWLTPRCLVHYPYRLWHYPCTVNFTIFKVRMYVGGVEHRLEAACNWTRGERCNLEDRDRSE

Binder	binding result
8D6 double Cys to Ala mutant (C104A, C109A) (antibody, V domains shown) VH: QVQLVQSGSELKKPGASLKLSCKASGYTYITPAMNWVRQAPGHGLEWMGGINTNTGNPTYAQGFAGRFVFSWDTSVSTAYLHISSLKTEDTAVYYCADTRIFSARRGTAYGGFDVWGQGTMVTVSS VL: DIQMTQSPSSLSASVGDRITITCRASQSISNFLNWFQHRPGKAPKLLIYGATILQSGVPSRFSGSGSGTDFTLTISSLQPEDFATYYCQQSDSSTYIFGQGTKVEIK	binds
AR3C double Cys mutant (double amino-acid substitution in the CX4C motif) (antibody, V domains shown) VH: VQLLEQSGAEVKKPGSSVKVSCETSGGTFDNYALNWVRQAPGQGLEWIGGVVPLFGTTRNAQKFQGRVTISDDKSTGTGHMELRSLRSEDTAVYYCVRSVTPRYAGGGFAYGEFDYWGQGTLVTVSS VL: EIELTQSPATLSVSPGERATLSCRASQSVSSNLAWYQQKPGQAPRLLIYGASTRATGIPARFSGSGSGTEFTLTVSRLEPEDSAVYFCQQYYRSPLTFGGGTKVEIK	binds
